Laboratory results as given in US20160185837A1 (AstraZeneca / MedImmune, published 2016).

T1: human GIP receptor (human, UniProt P48546 22-466)
T1 sequence (looked up): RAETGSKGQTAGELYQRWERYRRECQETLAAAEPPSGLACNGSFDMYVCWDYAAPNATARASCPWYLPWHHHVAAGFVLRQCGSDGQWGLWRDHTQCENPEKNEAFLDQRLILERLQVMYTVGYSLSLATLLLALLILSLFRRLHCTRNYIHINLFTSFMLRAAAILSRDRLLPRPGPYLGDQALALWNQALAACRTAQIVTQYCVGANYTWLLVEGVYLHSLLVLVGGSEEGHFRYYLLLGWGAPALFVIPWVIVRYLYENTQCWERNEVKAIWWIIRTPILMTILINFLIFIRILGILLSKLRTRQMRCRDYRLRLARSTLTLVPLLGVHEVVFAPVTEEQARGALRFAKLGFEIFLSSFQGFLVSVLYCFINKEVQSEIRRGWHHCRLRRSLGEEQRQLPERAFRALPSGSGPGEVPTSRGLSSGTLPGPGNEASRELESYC

T2: mouse GLP-1 receptor (mouse, UniProt O35659 22-463)
T2 sequence (looked up): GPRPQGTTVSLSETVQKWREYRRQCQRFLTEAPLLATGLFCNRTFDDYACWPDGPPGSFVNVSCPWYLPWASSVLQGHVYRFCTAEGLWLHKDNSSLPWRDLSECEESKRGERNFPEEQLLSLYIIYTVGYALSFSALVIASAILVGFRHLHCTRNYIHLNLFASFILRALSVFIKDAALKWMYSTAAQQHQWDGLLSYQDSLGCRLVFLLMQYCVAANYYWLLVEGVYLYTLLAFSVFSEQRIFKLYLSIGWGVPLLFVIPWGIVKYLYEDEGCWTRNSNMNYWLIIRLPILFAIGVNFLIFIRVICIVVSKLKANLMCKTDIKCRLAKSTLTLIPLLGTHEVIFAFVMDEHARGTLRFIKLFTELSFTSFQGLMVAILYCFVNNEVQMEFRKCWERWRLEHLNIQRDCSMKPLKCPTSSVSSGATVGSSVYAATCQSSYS

T3: mouse GIP receptor (mouse, UniProt Q0P543 19-460)
T3 sequence (looked up): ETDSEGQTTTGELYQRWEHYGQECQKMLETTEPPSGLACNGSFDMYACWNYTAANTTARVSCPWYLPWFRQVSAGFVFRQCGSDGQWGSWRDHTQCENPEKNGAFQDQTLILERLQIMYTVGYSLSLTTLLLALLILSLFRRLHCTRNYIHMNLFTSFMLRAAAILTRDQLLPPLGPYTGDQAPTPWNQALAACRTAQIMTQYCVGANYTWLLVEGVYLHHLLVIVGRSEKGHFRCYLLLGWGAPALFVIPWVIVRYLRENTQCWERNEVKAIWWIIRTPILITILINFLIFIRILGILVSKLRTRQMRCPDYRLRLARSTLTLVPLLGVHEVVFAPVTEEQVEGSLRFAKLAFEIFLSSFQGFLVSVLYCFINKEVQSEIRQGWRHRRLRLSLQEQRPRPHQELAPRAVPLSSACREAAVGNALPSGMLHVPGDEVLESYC

T4: rat GLP-1 receptor (rat, UniProt P32301 22-463)
T4 sequence (looked up): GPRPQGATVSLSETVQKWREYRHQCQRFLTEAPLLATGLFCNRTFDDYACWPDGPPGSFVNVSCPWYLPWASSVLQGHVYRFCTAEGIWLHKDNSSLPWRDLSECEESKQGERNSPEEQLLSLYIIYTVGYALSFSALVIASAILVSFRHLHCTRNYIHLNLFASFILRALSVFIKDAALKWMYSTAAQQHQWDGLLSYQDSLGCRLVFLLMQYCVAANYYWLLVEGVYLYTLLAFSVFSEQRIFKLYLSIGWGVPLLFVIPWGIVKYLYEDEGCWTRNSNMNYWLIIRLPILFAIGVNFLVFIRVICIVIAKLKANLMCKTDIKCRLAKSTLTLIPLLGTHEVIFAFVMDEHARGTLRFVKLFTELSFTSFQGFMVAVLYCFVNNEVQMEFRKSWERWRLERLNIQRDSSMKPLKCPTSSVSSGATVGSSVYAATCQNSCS

T5: rat GIP receptor (rat, UniProt P43219 19-455)
T5 sequence (looked up): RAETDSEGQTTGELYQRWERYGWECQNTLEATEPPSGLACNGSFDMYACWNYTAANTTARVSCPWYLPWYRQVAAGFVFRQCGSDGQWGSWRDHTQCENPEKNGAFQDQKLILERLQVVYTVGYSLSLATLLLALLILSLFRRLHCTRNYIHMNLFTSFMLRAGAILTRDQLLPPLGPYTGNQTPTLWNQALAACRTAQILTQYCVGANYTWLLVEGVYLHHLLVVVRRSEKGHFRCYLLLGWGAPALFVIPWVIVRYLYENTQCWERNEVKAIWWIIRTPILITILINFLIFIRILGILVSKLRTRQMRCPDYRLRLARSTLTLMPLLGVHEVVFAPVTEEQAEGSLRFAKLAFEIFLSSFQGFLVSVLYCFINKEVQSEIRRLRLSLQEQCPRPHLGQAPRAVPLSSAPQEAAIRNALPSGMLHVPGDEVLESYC


How the values were obtained:
Assay in all cases: cell-based or functional assay
human GLP-1 receptor = human GLP-1 receptor (human, UniProt P43220 24-463)
human glucagon receptor = human glucagon receptor (human, UniProt P47871 26-477)
human GIP receptor = molecular target: T1, human GIP receptor
mouse GLP-1 receptor = molecular target: T2, mouse GLP-1 receptor
mouse GIP receptor = molecular target: T3, mouse GIP receptor
rat GLP-1 receptor = molecular target: T4, rat GLP-1 receptor
rat GIP receptor = molecular target: T5, rat GIP receptor

Binder	cAMP EC50 (human GLP-1 receptor)	cAMP EC50 (human glucagon receptor)	cAMP EC50 (human GIP receptor)	cAMP EC50 (mouse GLP-1 receptor)	cAMP EC50 (mouse GIP receptor)	cAMP EC50 (rat GLP-1 receptor)	cAMP EC50 (rat GIP receptor)	also measured
IP324 (Fc fusion) YSEGTFTSDYSKLLEEEAVRLFIEWLVKGPGGGGGSGGGGSGGGGSGGGGSGGGGSGGGGSGGGGSA	0.4 nM	470 nM	0.037 nM	0.72 nM	240 nM	0.04 nM	0.14 nM	cAMP EC50, Batch 2 (human GLP-1 receptor): 0.14 nM; cAMP EC50, Batch 2 (human glucagon receptor): 120 nM; cAMP EC50, Batch 2 (human GIP receptor): 0.016 nM; cAMP EC50, Batch 2 (mouse GLP-1 receptor): 0.391 nM; cAMP EC50, Batch 2 (mouse GIP receptor): 67.5 nM; cAMP EC50, Batch 2 (rat GLP-1 receptor): 0.0363 nM; cAMP EC50, Batch 2 (rat GIP receptor): 0.141 nM
IP323 (Fc fusion) YSEGTFTSDYSKLLEEEAVRLFIEWLVKGPGGGGGSGGGGSGGGGSGGGGSGGGGSGGGGSA	0.2 nM	190 nM	0.017 nM	0.34 nM	65 nM	0.019 nM	0.082 nM	
IP327 (Fc fusion) YSEGTFTSDYSKLLEEEAVRLFIEWLLAGGGGGGGSGGGGSGGGGSGGGGSGGGGSGGGGSA	0.25 nM	10 nM	0.016 nM	0.7 nM	1.2 nM	0.032 nM	0.028 nM	
IP322 (Fc fusion) YSEGTFTSDYSKLLEEEAVRLFIEWLVKGPGGGGGSGGGGSGGGGSGGGGSGGGGSA	0.29 nM	260 nM	0.026 nM	0.41 nM	8.3 nM	0.025 nM	0.11 nM	
IP326 (Fc fusion) YSEGTFTSDYSKLLEEEAVRLFIEWLLAGGGGGGGSGGGGSGGGGSGGGGSGGGGSA	0.37 nM	15 nM	0.027 nM	0.87 nM	1.7 nM	0.039 nM	0.037 nM	
IP213 (Fc fusion) YSEGTFTSDYSKLLEEEAVRLFIEWLLAGGAAAGGSGSTASSGSGSATGGGGAATHTCPPCPAPEF	0.087 nM	18 nM	0.0059 nM	0.82 nM	2.5 nM	0.087 nM	0.054 nM	
IP087 (Fc fusion) YSEGTFTSDYSKLLEEEAVRLFIEWLLAGPAAAGGSGSTASSGSGSATGGGGAATHTCPPCPAPEF	0.28 nM	9.6 nM	0.0086 nM	1.2 nM	5.7 nM	0.11 nM	0.17 nM	
IP325 (Fc fusion) YSEGTFTSDYSKLLEEEAVRLFIEWLVKGPGGGGGSGGGGSGGGGSGGGGSGGGGSGGGGSGGGGSGGGGSA	0.46 nM	> 455 nM	0.037 nM	0.64 nM	170 nM	0.035 nM	0.13 nM	cAMP EC50, Batch 2 (human GLP-1 receptor): 0.16 nM; cAMP EC50, Batch 2 (human glucagon receptor): 110 nM; cAMP EC50, Batch 2 (human GIP receptor): 0.018 nM; cAMP EC50, Batch 2 (mouse GLP-1 receptor): 0.488 nM; cAMP EC50, Batch 2 (mouse GIP receptor): 57.2 nM; cAMP EC50, Batch 2 (rat GLP-1 receptor): 0.0519 nM; cAMP EC50, Batch 2 (rat GIP receptor): 0.154 nM
IP296 (Fc fusion) YSEGTFTSDYSKLLEEEAVRCFIEWLVKGGPSSGAPPCSGGGGGGGGGGGGGGGGGGGGGGGGACPPC	0.57 nM	> 1120 nM	0.018 nM	1.4 nM	110 nM	0.055 nM	0.46 nM	cAMP EC50, Batch 2 (human GLP-1 receptor): 0.39 nM; cAMP EC50, Batch 3 (human GLP-1 receptor): 0.37 nM; cAMP EC50, Batch 4 (human GLP-1 receptor): 0.29 nM; cAMP EC50, Batch 2 (human glucagon receptor): > 784 nM; cAMP EC50, Batch 3 (human glucagon receptor): > 4490 nM; cAMP EC50, Batch 4 (human glucagon receptor): 6700 nM; cAMP EC50, Batch 2 (human GIP receptor): 0.021 nM; cAMP EC50, Batch 3 (human GIP receptor): 0.014 nM; cAMP EC50, Batch 4 (human GIP receptor): 0.011 nM; cAMP EC50, Batch 2 (mouse GLP-1 receptor): 0.6 nM; cAMP EC50, Batch 4 (mouse GLP-1 receptor): 0.64 nM; cAMP EC50, Batch 2 (mouse GIP receptor): 55 nM; cAMP EC50, Batch 4 (mouse GIP receptor): 65 nM; cAMP EC50, Batch 2 (rat GLP-1 receptor): 0.028 nM; cAMP EC50, Batch 4 (rat GLP-1 receptor): 0.027 nM; cAMP EC50, Batch 4 (rat GIP receptor): 0.14 nM
IP297 (Fc fusion) YSEGTFTSDYSKLLEEEAVRLFIEWLLAGGGGGGGGGGGGGGGGGGGGGGGGGACPPC	0.19 nM	31 nM	0.015 nM	0.82 nM	8.1 nM	0.028 nM	0.089 nM	
IP300 (Fc fusion) YSEGTFTSDYSKLLEEEAVRLFIEWLLAGAPPGGGGGGGGGGGGGGGGGGGGGACPPC	0.21 nM	21 nM	0.013 nM	0.94 nM	0.9 nM	0.027 nM	0.069 nM	
